# In patent publication US20090280200A1, “HERBAL EXTRACTS WHICH INDUCE IMMUNE CELLS TO PRODUCE INTERFERON AND ACTIVATE TOLL-LIKE RECEPTORS” (INDUSTRIAL TECHNOLOGY RESEARCH INSTITUTE, priority 2008, published 2009):
# B1: IL-12: IL-12 (positive control) with 40 ng/mL (protein, UniProt P29459 23-219; P29460 23-328, looked up)
# Interleukin-12 subunit alpha: RNLPVATPDPGMFPCLHHSQNLLRAVSNMLQKARQTLEFYPCTSEEIDHEDITKDKTSTVEACLPLELTKNESCLNSRETSFITNGSCLASRKTSFMMALCLSSIYEDLKMYQVEFKTMNAKLLMDPKRQIFLDQNMLAVIDELMQALNFNSETVPQKSSLEEPDFYKTKIKLCILLHAFRIRAVTIDRVMSYLNAS
# Interleukin-12 subunit beta: IWELKKDVYVVELDWYPDAPGEMVVLTCDTPEEDGITWTLDQSSEVLGSGKTLTIQVKEFGDAGQYTCHKGGEVLSHSLLLLHKKEDGIWSTDILKDQKEPKNKTFLRCEAKNYSGRFTCWWLTTISTDLTFSVKSSRGSSDPQGVTCGAATLSAERVRGDNKEYEYSVECQEDSACPAAEESLPIEVMVDAVHKLKYENYTSSFFIRDIIKPDPPKNLQLKPLKNSRQVEVSWEYPDTWSTPHSYFSLTFCVQVQGKSKREKKDRVFTDKTSATVICRKNASISVRAQDRYYSSSWSEWASVPCS
# System: immune cells
# Test: Inducing activity for interferon-γ in immune cells
# Assay type: cell-based
# Conditions: IL-12 (positive control) with 40 ng/mL
# Procedure: The herbal extract (prepared by Example 1) was added in T lymphocytes and natural killer cells (NK92) separated from peripheral blood. After 24 hours, the upper-layered solution was collected and the quantity of interferon thereof was measured by ELISA. […] The dosage effect appears in both the T lymphocytes and natural killer cells (NK92). The quantity of interferon-α induced by PC-IL-12 (positive control) and the herbal extract was measured in the same manner. […] Additionally, the quantity of interferon-α produced by inducing T lymphocytes by the herbal extract with 250-1,000 μg/mL was obvious, as shown in FIGS. 2B and 2C.
# The inducing activity for interferon-γ of the herbal extract (prepared by Example 3) was tested.
molecule,measurement,value
B1,interferon-γ produced,50 ± 2.04 pg/mL
